In the supplement of paper PMC10065799, “High-throughput profiling of sequence recognition by tyrosine kinases and SH2 domains using bacterial peptide display” (eLife, 2023) one finds phosphorylation enrichment and SH2 binding enrichment data, which are given here for nine sequences.

One data set concerns AncSZ. Nature of the data set: phosphorylation enrichment, bacterial display (enrichment ratio); higher = better substrate or ligand; peptides without Tyr show the background.
Another data set addresses EPHB1 (UniProt P54762). Described as above.
The target in a further data set is EPHB2 (UniProt P29323). Described as above.
The next data set has as its target FGFR1 (UniProt P11362). Described as above.
For the next data set, the target named is FGFR3 (UniProt P22607). The data set is described as above.
Another data set has as its system Fer (mouse). Described as above.
Another data set deals with Fes (UniProt P07332). The data set is described as above.
Another data set addresses Fyn (UniProt P06241). The data set is described as above.
The next data set addresses Hck (UniProt P08631). The data set is described as above.
Another data set concerns the target Jak2 (UniProt O60674). Described as above.
Another data set has as its target MERTK (UniProt Q12866). Described as above.
The test system of another data set is c-Abl (mouse). The description is as above.
The test system of another data set is c-Src. The description is as above.
In another data set the target is Grb2 SH2 (UniProt P62993). The data set can be described thus: SH2 binding enrichment of the phosphorylated peptide, bacterial display (enrichment ratio); higher = better substrate or ligand; peptides without Tyr show the background.
For another data set, the target named is SHP2-C SH2. The data set is described as above.
Another data set deals with c-Src SH2. Described as above.
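For SH2 binding enrichment of the phosphorylated peptide, bacterial display in this document: peptide library displayed on the E. coli surface as eCPX fusions, selected cells deep-sequenced, score is each peptide's frequency after selection divided by its frequency in the input.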
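For phosphorylation enrichment, bacterial display in this document: 11-residue human phosphosite peptides and single-mutation variants displayed on the E. coli surface, counted by deep sequencing, each peptide's frequency after selection divided by its frequency in the unselected input library; frequency after pTyr selection over input frequency; kinase dosed for 20-30% of maximal phosphorylation in three min.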

Jak2, sequence (O60674 whole entry, looked up): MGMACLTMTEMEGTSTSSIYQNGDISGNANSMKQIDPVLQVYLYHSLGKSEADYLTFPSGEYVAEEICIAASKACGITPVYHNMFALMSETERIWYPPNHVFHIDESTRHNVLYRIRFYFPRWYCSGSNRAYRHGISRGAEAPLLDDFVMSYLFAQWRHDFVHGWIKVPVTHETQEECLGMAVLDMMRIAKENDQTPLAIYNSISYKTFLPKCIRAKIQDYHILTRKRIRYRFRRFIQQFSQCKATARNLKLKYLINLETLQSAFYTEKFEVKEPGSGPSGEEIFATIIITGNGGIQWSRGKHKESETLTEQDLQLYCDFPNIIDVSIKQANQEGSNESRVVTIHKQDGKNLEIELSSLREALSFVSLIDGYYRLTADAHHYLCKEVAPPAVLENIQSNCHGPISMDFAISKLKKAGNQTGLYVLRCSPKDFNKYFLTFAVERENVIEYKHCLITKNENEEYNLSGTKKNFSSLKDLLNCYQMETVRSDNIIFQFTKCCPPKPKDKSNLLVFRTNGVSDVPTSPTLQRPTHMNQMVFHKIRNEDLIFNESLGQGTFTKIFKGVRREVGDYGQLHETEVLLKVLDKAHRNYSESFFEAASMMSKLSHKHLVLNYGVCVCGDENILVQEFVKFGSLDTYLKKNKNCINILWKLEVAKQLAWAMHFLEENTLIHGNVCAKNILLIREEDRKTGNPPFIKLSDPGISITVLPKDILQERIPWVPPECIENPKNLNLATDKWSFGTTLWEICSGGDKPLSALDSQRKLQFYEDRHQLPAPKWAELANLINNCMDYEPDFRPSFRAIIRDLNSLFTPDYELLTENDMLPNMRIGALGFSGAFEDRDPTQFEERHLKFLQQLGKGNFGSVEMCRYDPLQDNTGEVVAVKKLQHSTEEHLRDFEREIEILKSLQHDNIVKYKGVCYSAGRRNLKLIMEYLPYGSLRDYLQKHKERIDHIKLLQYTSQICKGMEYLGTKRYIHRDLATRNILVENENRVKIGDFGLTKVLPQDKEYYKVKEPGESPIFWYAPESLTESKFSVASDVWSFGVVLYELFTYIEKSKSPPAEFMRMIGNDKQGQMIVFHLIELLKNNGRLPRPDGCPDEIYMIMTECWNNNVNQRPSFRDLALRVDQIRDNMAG
EPHB2, sequence (P29323 whole entry, looked up): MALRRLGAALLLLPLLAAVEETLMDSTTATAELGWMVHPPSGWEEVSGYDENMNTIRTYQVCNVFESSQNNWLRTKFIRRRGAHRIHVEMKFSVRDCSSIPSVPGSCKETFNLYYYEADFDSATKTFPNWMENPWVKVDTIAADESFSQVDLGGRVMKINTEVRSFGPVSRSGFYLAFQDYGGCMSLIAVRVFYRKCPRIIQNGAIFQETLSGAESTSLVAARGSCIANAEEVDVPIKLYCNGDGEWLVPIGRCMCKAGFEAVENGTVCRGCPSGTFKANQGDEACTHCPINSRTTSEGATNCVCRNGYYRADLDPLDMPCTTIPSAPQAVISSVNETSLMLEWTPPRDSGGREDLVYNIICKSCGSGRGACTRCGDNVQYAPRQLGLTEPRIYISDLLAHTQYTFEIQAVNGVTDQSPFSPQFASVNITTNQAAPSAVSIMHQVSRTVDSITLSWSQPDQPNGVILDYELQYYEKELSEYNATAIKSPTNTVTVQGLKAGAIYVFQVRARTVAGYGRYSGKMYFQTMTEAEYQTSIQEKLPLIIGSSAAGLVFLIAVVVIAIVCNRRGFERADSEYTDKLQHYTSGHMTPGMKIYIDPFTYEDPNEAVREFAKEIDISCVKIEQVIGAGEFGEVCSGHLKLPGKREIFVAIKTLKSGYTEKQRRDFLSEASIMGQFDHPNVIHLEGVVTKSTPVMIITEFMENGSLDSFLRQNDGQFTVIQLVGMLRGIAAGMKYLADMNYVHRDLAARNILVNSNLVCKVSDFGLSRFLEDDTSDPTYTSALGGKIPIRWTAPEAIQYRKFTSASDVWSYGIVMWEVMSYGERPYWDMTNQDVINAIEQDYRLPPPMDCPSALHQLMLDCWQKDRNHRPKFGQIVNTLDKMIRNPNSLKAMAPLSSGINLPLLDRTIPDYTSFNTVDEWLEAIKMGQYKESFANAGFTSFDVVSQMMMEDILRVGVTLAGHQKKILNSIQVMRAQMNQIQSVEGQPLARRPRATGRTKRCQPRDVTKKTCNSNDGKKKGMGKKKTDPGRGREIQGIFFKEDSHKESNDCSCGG
Grb2 SH2, sequence (P62993 whole entry, looked up): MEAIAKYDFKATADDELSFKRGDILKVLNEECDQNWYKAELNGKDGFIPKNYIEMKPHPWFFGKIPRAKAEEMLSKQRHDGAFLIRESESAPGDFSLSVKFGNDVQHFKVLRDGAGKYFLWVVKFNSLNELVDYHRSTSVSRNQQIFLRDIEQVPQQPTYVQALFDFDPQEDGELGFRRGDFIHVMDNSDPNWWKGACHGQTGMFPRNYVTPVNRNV
Fes, sequence (P07332 whole entry, looked up): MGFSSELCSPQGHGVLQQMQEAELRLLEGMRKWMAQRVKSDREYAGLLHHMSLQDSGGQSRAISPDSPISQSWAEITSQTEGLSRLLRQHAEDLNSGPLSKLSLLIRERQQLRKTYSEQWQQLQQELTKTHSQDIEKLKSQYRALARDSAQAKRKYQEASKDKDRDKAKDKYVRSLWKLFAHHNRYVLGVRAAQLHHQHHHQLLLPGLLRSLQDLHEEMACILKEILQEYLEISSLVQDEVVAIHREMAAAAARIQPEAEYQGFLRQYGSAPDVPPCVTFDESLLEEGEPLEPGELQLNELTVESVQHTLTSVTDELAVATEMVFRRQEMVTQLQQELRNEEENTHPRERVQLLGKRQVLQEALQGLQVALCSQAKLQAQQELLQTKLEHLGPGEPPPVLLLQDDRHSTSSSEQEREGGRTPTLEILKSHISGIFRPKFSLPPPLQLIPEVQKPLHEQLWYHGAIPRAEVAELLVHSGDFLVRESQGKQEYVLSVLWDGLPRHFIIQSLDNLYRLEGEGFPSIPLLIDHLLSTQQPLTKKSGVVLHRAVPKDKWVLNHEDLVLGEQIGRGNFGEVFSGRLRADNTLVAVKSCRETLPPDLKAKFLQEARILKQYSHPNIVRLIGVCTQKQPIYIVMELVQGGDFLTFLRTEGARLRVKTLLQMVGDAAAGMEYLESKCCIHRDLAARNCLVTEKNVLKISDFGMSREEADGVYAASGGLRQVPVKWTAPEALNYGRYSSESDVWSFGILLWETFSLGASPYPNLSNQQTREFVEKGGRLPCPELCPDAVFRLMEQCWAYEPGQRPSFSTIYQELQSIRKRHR
Hck, sequence (P08631 whole entry, looked up): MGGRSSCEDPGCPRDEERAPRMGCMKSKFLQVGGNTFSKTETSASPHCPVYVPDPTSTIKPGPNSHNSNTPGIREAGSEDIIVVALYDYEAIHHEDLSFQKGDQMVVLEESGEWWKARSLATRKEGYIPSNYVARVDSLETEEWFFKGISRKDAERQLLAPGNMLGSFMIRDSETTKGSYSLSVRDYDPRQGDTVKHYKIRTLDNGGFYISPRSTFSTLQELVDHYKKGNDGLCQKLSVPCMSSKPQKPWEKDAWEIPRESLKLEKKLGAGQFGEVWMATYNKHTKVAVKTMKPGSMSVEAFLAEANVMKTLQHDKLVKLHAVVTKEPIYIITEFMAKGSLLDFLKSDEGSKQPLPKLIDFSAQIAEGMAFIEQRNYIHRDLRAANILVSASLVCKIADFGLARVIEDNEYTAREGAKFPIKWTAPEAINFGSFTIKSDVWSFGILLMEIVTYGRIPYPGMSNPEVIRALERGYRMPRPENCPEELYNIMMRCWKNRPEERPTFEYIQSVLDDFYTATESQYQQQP
MERTK, sequence (Q12866 whole entry, looked up): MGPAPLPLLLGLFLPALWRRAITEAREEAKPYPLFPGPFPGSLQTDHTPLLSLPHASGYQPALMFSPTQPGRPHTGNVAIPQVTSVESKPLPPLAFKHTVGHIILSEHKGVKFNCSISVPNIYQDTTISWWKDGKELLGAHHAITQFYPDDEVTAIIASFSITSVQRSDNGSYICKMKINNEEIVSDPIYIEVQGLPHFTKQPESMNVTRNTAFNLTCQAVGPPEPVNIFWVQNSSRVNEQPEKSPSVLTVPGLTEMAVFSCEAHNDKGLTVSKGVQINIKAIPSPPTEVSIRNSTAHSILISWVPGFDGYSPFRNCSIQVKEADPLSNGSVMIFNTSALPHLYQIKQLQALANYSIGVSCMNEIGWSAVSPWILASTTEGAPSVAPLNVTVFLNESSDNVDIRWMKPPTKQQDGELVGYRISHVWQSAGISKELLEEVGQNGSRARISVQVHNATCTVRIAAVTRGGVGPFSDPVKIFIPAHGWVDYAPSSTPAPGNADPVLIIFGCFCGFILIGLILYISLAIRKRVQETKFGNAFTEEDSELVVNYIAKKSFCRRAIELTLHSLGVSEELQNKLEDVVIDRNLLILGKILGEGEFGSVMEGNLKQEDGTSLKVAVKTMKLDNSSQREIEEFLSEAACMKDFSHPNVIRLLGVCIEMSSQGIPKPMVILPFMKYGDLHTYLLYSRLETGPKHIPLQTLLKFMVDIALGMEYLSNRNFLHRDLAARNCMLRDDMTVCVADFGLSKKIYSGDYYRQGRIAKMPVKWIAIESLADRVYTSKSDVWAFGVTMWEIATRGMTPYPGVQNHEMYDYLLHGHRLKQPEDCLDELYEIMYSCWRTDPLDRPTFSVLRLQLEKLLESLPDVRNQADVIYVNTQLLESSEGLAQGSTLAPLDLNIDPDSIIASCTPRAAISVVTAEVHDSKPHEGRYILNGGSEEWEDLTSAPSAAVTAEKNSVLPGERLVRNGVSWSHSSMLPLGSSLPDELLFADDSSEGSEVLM

As to WIPIQYPIISE [NOG_Y222], the phosphorylation enrichment with AncSZ is 0.782; with EPHB1, 0.421; with EPHB2, 0.439; in the data set with FGFR1 it was 0.394; in the data set with FGFR3, 0.571; with Fer (mouse), 0.508. Further, the phosphorylation enrichment was determined as 0.807 with Fes; 0.427 with Fyn; 0.439 with Hck; 0.622 in the data set with Jak2; 0.343 with MERTK; 0.59 in the data set on c-Abl (mouse). The phosphorylation enrichment in the data set with c-Src came out at 0.354. Also, the figures for the SH2 binding enrichment with Grb2 SH2, in the data set with SHP2-C SH2 and with c-Src SH2 were 1.14, 1.35 and 0.807, respectively.

As to WQQQSYLYSGI [CTNNB1_Y30_D32Y], the phosphorylation enrichment in the data set on AncSZ is 1.16; with EPHB1, 3.97; with EPHB2 it was 5.03; in the data set with FGFR1, 1.07; with FGFR3 it was 1.03; in the data set on Fer (mouse), 5.61. The phosphorylation enrichment worked out at 1.48 with Fes; 7.05 with Fyn; 7.73 with Hck; 1.52 in the data set with Jak2; 7.49 with MERTK; 0.851 in the data set on c-Abl (mouse). In addition, the phosphorylation enrichment in the data set with c-Src amounted to 5.93. Besides, the SH2 binding enrichment was found to be 0.972 in the data set with Grb2 SH2, 0.687 in the data set with SHP2-C SH2 and 1.37 in the data set with c-Src SH2.

As to WSISFYPQVIM [CTNS_Y143], the phosphorylation enrichment with AncSZ stood at 1.21; in the data set with EPHB1, 0.586; with EPHB2, 0.552; in the data set with FGFR1 it was 0.513; with FGFR3 it was 0.805; in the data set on Fer (mouse), 0.471. Also, the phosphorylation enrichment in the data set with Fes came to 1.33; with Fyn, 0.354; with Hck, 0.399; with Jak2, 1.19; with MERTK, 0.301; with c-Abl (mouse) it was 0.623. For the same sequence, in the data set with c-Src, the phosphorylation enrichment is 0.35. Besides, the SH2 binding enrichment is 0.883 with Grb2 SH2, 0.588 with SHP2-C SH2 and 0.571 in the data set with c-Src SH2.

With WSRAMYPDLGP [STARD8_Y330], the phosphorylation enrichment with AncSZ turned out to be 0.745; in the data set with EPHB1, 0.396; in the data set with EPHB2, 0.397; with FGFR1, 0.467; with FGFR3 it was 0.575; with Fer (mouse), 0.435. Further, the phosphorylation enrichment in the data set with Fes stood at 0.779; with Fyn it was 0.463; with Hck, 0.463; in the data set with Jak2 it was 0.579; with MERTK, 0.478; in the data set on c-Abl (mouse), 0.52. Also, the phosphorylation enrichment in the data set on c-Src was found to be 0.39. Besides, the SH2 binding enrichment with Grb2 SH2 amounted to 1.02; with SHP2-C SH2 it was 0.933; with c-Src SH2 it was 0.608.

For the sequence WYQTKYEELQV [KRT6B_Y360_I365V], the phosphorylation enrichment is 1.11 with AncSZ; 0.61 with EPHB1; 0.707 in the data set with EPHB2; 0.521 in the data set with FGFR1; 0.753 with FGFR3; 0.568 with Fer (mouse). The phosphorylation enrichment was found to be 1.28 with Fes; 0.519 with Fyn; 0.723 in the data set with Hck; 1.02 in the data set with Jak2; 0.394 in the data set with MERTK; 0.741 in the data set on c-Abl (mouse). Further, the phosphorylation enrichment in the data set with c-Src was 0.452. The SH2 binding enrichment was found to be 0.832 with Grb2 SH2, 0.834 with SHP2-C SH2 and 6.2 with c-Src SH2.

For YDCKWYIPLTD [BCR_Y756], the phosphorylation enrichment in the data set with AncSZ was determined as 1.47; in the data set with EPHB1, 0.689; with EPHB2, 0.711; in the data set with FGFR1, 0.839; in the data set with FGFR3, 0.805; with Fer (mouse), 0.502. Moreover, the phosphorylation enrichment with Fes was 1.41; with Fyn it was 0.483; with Hck, 0.571; with Jak2, 1.68; with MERTK, 1.51; with c-Abl (mouse), 0.914. Besides, the phosphorylation enrichment with c-Src was found to be 0.69. In addition, the SH2 binding enrichment with Grb2 SH2 was 0.863; with SHP2-C SH2 it was 0.707; with c-Src SH2, 0.597.

Regarding YDDGKYVYVVT [RPS6KA3_Y488], the phosphorylation enrichment in the data set with AncSZ turned out to be 1.25; with EPHB1 it was 0.724; in the data set with EPHB2, 0.669; with FGFR1, 1.63; in the data set with FGFR3, 1.38; with Fer (mouse), 0.811. Further, the phosphorylation enrichment with Fes is 1.27; with Fyn, 1.43; with Hck, 1.04; with Jak2 it was 1.34; with MERTK it was 0.941; in the data set with c-Abl (mouse) it was 0.768. The phosphorylation enrichment in the data set with c-Src turned out to be 1.3. Also, the SH2 binding enrichment in the data set with Grb2 SH2 amounted to 0.907; with SHP2-C SH2 it was 0.531; in the data set with c-Src SH2, 0.595.

For the sequence YDGGCYEQLFV [MC4R_Y41_S36Y], the phosphorylation enrichment with AncSZ was 2.51; with EPHB1, 1.24; with EPHB2, 0.968; in the data set with FGFR1 it was 1.18; in the data set with FGFR3, 1.45; with Fer (mouse), 11.4. Also, the phosphorylation enrichment in the data set with Fes worked out at 1.38; with Fyn, 2.04; in the data set with Hck, 3.08; with Jak2 it was 1.21; with MERTK, 1.17; with c-Abl (mouse), 1.01. In addition, the phosphorylation enrichment in the data set on c-Src turned out to be 2.71. Moreover, the values for the SH2 binding enrichment in the data set with Grb2 SH2, with SHP2-C SH2 and in the data set with c-Src SH2 were 0.742, 0.623 and 0.598, respectively.

In the case of YDGKEYDPVEA [MAPRE2_Y167], the phosphorylation enrichment in the data set on AncSZ was 1.21; with EPHB1 it was 0.772; in the data set with EPHB2, 0.637; in the data set with FGFR1 it was 0.535; with FGFR3 it was 0.836; in the data set on Fer (mouse), 0.621. The phosphorylation enrichment was 1.42 in the data set with Fes; 0.556 with Fyn; 0.567 with Hck; 1.22 with Jak2; 0.497 with MERTK; 0.935 with c-Abl (mouse). Moreover, the phosphorylation enrichment in the data set on c-Src was 0.645. The SH2 binding enrichment turned out to be 0.912 in the data set with Grb2 SH2, 0.502 with SHP2-C SH2 and 0.604 with c-Src SH2.
